These results are taken from US20100260668A1 (published 2010).

One may read the EC50 as the concentration at which the effect is half-maximal. Low readings indicate higher potency in that assay, high ones lower potency in that assay.

Test [1] addresses T1, PlGF (UniProt P49763-2 21-149, limits assumed).
T1 construct: bought antigen coated on the ELISA plate; also called Placental GF
T1 sequence (looked up): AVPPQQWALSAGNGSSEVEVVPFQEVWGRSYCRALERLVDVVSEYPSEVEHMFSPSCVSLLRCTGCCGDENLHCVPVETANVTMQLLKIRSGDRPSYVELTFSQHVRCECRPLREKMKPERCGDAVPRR
Kind of test: direct bind ELISA, C-terminal VD. In general terms: In an ELISA, binding on a coated surface is turned into a signal by an enzyme label.
Procedure: Enzyme Linked Immunosorbent Assays to screen for antibodies that bind a desired target antigen were performed as follows. […] Plates were washed four times with PBS containing 0.02% Tween 20. Plates were blocked by the addition of 300 μL/well blocking solution (non-fat dry milk powder, various retail suppliers, diluted to 2% in PBS) for ½ hour at room temperature. Plates were washed four times after blocking with PBS containing 0.02% Tween 20.
Plates were washed 4 times with PBS containing 0.02% Tween 20.

The next test deals with T2, VEGF (UniProt P15692 27-191, limits assumed).
T2 construct: bought antigen coated on the ELISA plate
The test can be described thus: direct bind ELISA, N-terminal VD.

Test [2] has as its target T1, PlGF. Kind of test: direct bind ELISA, N-terminal VD.

T2 sequence (P15692 other isoform, or with tags, fused parts or gaps limits assumed): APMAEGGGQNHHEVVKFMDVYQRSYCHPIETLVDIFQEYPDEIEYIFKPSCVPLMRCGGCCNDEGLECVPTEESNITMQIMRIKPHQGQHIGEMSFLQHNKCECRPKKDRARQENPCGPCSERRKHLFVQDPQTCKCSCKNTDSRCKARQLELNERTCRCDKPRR

B1: DVD544 (bispecific antibody, human IgG1, kappa)
heavy: not shown
light: DIQMTQSPSSLSASVGDRVTITCRASQDVSTAVAWYQQKPGKAPKLLIYSASFLYSGVPSRFSGSGSGTDFTLTISSLQPEDFATYYCQQSYTTPPTFGQGTKVEIKRTVAAPAIQMTQSSSSFSVSLGDRVTITCKASEDIYNRFAWYQQKPGNAPRLLISGAASLEAGVPSRFSGSGSGQDYTLSITSLQTEDVATYYCQQYWSTPWTFGGGTKLEIKRTVAAPSVFIFPPSDEQLKSGTASVVCLLNNFYPREAKVQWKVDNALQSGNSQESVTEQDSKDSTYSLSSTLTLSKADYEKHKVYACEVTHQGLSSPVTKSFNRGEC
notes: HC linker short, LC linker short; also called DVD-Ig DVD544
For B1, the values for the concentration giving a half-maximal response (EC50) with PlGF [1] and with VEGF were 13.8 nM and 2.35 nM, respectively.

B2: DVD560 (bispecific antibody, human IgG1, kappa)
heavy: not shown
light: B1 light
notes: HC linker long, LC linker short; also called DVD-Ig DVD560
In the case of B2, the EC50 with PlGF [1] stood at 2.53 nM; in the test with VEGF it was 3.12 nM.

B3: DVD553 (bispecific antibody, human IgG1, kappa)
heavy: not shown
light: AIQMTQSSSSFSVSLGDRVTITCKASEDIYNRFAWYQQKPGNAPRLLISGAASLEAGVPSRFSGSGSGQDYTLSITSLQTEDVATYYCQQYWSTPWTFGGGTKLEIKRTVAAPSVFIFPPDIQMTQSPSSLSASVGDRVTITCRASQVIRRSLAWYQQKPGKAPKLLIYAASNLASGVPSRFSGSGSGTDFTLTISSLQPEDFATYYCQQSNTSPLTFGQGTKVEIKRTVAAPSVFIFPPSDEQLKSGTASVVCLLNNFYPREAKVQWKVDNALQSGNSQESVTEQDSKDSTYSLSSTLTLSKADYEKHKVYACEVTHQGLSSPVTKSFNRGEC
notes: outer AB074 (PlGF), inner AB071 (VEGF); HC linker long, LC linker long; also called DVD-Ig DVD553
Regarding B3, the EC50 with PlGF [2] came out at 66300 nM. This lies in the double-digit micromolar range.

B4: DVD569 (bispecific antibody, human IgG1, kappa)
heavy: not shown
light: B3 light
notes: outer AB074 (PlGF), inner AB071 (VEGF); HC linker short, LC linker long; also called DVD-Ig DVD569
Turning to B4, the EC50 with PlGF [2] was 88.5 nM.

B5: DVD542 (bispecific antibody, human IgG1, kappa)
heavy: not shown
light: DIQMTQSPSSLSASVGDRVTITCSASQDISNYLNWYQQKPGKAPKVLIYFTSSLHSGVPSRFSGSGSGTDFTLTISSLQPEDFATYYCQQYSTVPWTFGQGTKVEIKRTVAAPAIQMTQSSSSFSVSLGDRVTITCKASEDIYNRFAWYQQKPGNAPRLLISGAASLEAGVPSRFSGSGSGQDYTLSITSLQTEDVATYYCQQYWSTPWTFGGGTKLEIKRTVAAPSVFIFPPSDEQLKSGTASVVCLLNNFYPREAKVQWKVDNALQSGNSQESVTEQDSKDSTYSLSSTLTLSKADYEKHKVYACEVTHQGLSSPVTKSFNRGEC
notes: HC linker short, LC linker short; also called DVD-Ig DVD542
For the molecule B5, the EC50 with PlGF [1] turned out to be 13 nM; with VEGF, 0.8 nM.

B6: DVD558 (bispecific antibody, human IgG1, kappa)
heavy: not shown
light: B5 light
notes: HC linker long, LC linker short; also called DVD-Ig DVD558
On to B6, for which the EC50 with PlGF [1] worked out at 3.37 nM; in the test with VEGF, 1.96 nM.

B7: DVD552 (bispecific antibody, human IgG1, kappa)
heavy: not shown
light: DIQMTQSPSSLSASVGDRVTITCRASQDVSTAVAWYQQKPGKAPKLLIYSASFLYSGVPSRFSGSGSGTDFTLTISSLQPEDFATYYCQQSYTTPPTFGQGTKVEIKRTVAAPSVFIFPPAIQMTQSSSSFSVSLGDRVTITCKASEDIYNRFAWYQQKPGNAPRLLISGAASLEAGVPSRFSGSGSGQDYTLSITSLQTEDVATYYCQQYWSTPWTFGGGTKLEIKRTVAAPSVFIFPPSDEQLKSGTASVVCLLNNFYPREAKVQWKVDNALQSGNSQESVTEQDSKDSTYSLSSTLTLSKADYEKHKVYACEVTHQGLSSPVTKSFNRGEC
notes: HC linker long, LC linker long; also called DVD-Ig DVD552
Regarding B7, the results for the EC50 with PlGF [1] and with VEGF were 8.54 nM and 314 nM, respectively.

B8: DVD550 (bispecific antibody, human IgG1, kappa)
heavy: not shown
light: DIQMTQSPSSLSASVGDRVTITCSASQDISNYLNWYQQKPGKAPKVLIYFTSSLHSGVPSRFSGSGSGTDFTLTISSLQPEDFATYYCQQYSTVPWTFGQGTKVEIKRTVAAPSVFIFPPAIQMTQSSSSFSVSLGDRVTITCKASEDIYNRFAWYQQKPGNAPRLLISGAASLEAGVPSRFSGSGSGQDYTLSITSLQTEDVATYYCQQYWSTPWTFGGGTKLEIKRTVAAPSVFIFPPSDEQLKSGTASVVCLLNNFYPREAKVQWKVDNALQSGNSQESVTEQDSKDSTYSLSSTLTLSKADYEKHKVYACEVTHQGLSSPVTKSFNRGEC
notes: HC linker long, LC linker long; also called DVD-Ig DVD550
Consider B8, for which, in the test with PlGF [1], the EC50 stood at 146 nM.

B9: DVD545 (bispecific antibody, human IgG1, kappa)
heavy: not shown
light: AIQMTQSSSSFSVSLGDRVTITCKASEDIYNRFAWYQQKPGNAPRLLISGAASLEAGVPSRFSGSGSGQDYTLSITSLQTEDVATYYCQQYWSTPWTFGGGTKLEIKRTVAAPDIQMTQSPSSLSASVGDRVTITCRASQVIRRSLAWYQQKPGKAPKLLIYAASNLASGVPSRFSGSGSGTDFTLTISSLQPEDFATYYCQQSNTSPLTFGQGTKVEIKRTVAAPSVFIFPPSDEQLKSGTASVVCLLNNFYPREAKVQWKVDNALQSGNSQESVTEQDSKDSTYSLSSTLTLSKADYEKHKVYACEVTHQGLSSPVTKSFNRGEC
notes: outer AB074 (PlGF), inner AB071 (VEGF); HC linker short, LC linker short; also called DVD-Ig DVD545
B9: a half-maximal effect with PlGF [2] (EC50) was put at 98.8 nM.

B10: DVD575 (bispecific antibody, human IgG1, kappa)
heavy: not shown
light: DIVLTQSPDSLAVSLGERVTMNCKSSQSLLNSGMRKSFLAWYQQKPGQSPKLLIYWASTRESGVPDRFTGSGSGTDFTLTISSVQAEDVAVYYCKQSYHLFTFGSGTKLEIKRTVAAPDIQMTQSPSSLSASVGDRVTITCRASQVIRRSLAWYQQKPGKAPKLLIYAASNLASGVPSRFSGSGSGTDFTLTISSLQPEDFATYYCQQSNTSPLTFGQGTKVEIKRTVAAPSVFIFPPSDEQLKSGTASVVCLLNNFYPREAKVQWKVDNALQSGNSQESVTEQDSKDSTYSLSSTLTLSKADYEKHKVYACEVTHQGLSSPVTKSFNRGEC
notes: outer AB047 (PlGF), inner AB071 (VEGF); HC linker short, LC linker short; also called DVD-Ig DVD575
Regarding B10, a half-maximal effect in the test with PlGF [2] (EC50) was put at 0.14 nM.

B11: DVD567 (bispecific antibody, human IgG1, kappa)
heavy: not shown
light: AIQMTQSSSSFSVSLGDRVTITCKASEDIYNRFAWYQQKPGNAPRLLISGAASLEAGVPSRFSGSGSGQDYTLSITSLQTEDVATYYCQQYWSTPWTFGGGTKLEIKRTVAAPSVFIFPPDIQMTQSPSSLSASVGDRVTITCRASQDVSTAVAWYQQKPGKAPKLLIYSASFLYSGVPSRFSGSGSGTDFTLTISSLQPEDFATYYCQQSYTTPPTFGQGTKVEIKRTVAAPSVFIFPPSDEQLKSGTASVVCLLNNFYPREAKVQWKVDNALQSGNSQESVTEQDSKDSTYSLSSTLTLSKADYEKHKVYACEVTHQGLSSPVTKSFNRGEC
notes: HC linker short, LC linker long; also called DVD-Ig DVD567
In turn, B11 came in with an EC50 in the test with PlGF [2] of 340 nM.

B12: DVD554 (bispecific antibody, human IgG1, kappa)
heavy: not shown
light: DIQMTQSPSSLSASVGDRVTITCRASQVIRRSLAWYQQKPGKAPKLLIYAASNLASGVPSRFSGSGSGTDFTLTISSLQPEDFATYYCQQSNTSPLTFGQGTKVEIKRTVAAPSVFIFPPAIQMTQSSSSFSVSLGDRVTITCKASEDIYNRFAWYQQKPGNAPRLLISGAASLEAGVPSRFSGSGSGQDYTLSITSLQTEDVATYYCQQYWSTPWTFGGGTKLEIKRTVAAPSVFIFPPSDEQLKSGTASVVCLLNNFYPREAKVQWKVDNALQSGNSQESVTEQDSKDSTYSLSSTLTLSKADYEKHKVYACEVTHQGLSSPVTKSFNRGEC
notes: outer AB071 (VEGF), inner AB074 (PlGF); HC linker long, LC linker long; also called DVD-Ig DVD554
In the case of B12, the EC50 with PlGF [1] worked out at 0.45 nM; with VEGF, 15.2 nM.

B13: DVD546 (bispecific antibody, human IgG1, kappa)
heavy: not shown
light: DIQMTQSPSSLSASVGDRVTITCRASQVIRRSLAWYQQKPGKAPKLLIYAASNLASGVPSRFSGSGSGTDFTLTISSLQPEDFATYYCQQSNTSPLTFGQGTKVEIKRTVAAPAIQMTQSSSSFSVSLGDRVTITCKASEDIYNRFAWYQQKPGNAPRLLISGAASLEAGVPSRFSGSGSGQDYTLSITSLQTEDVATYYCQQYWSTPWTFGGGTKLEIKRTVAAPSVFIFPPSDEQLKSGTASVVCLLNNFYPREAKVQWKVDNALQSGNSQESVTEQDSKDSTYSLSSTLTLSKADYEKHKVYACEVTHQGLSSPVTKSFNRGEC
notes: outer AB071 (VEGF), inner AB074 (PlGF); HC linker short, LC linker short; also called DVD-Ig DVD546
In the case of B13, the EC50 with PlGF [1] came to 7.03 nM; with VEGF, 25.8 nM.

B14: DVD562 (bispecific antibody, human IgG1, kappa)
heavy: not shown
light: B13 light
notes: outer AB071 (VEGF), inner AB074 (PlGF); HC linker long, LC linker short; also called DVD-Ig DVD562
On to B14, for which the EC50 with PlGF [1] is 1.12 nM; with VEGF, 17.7 nM.

B15: DVD573 (bispecific antibody, human IgG1, kappa)
heavy: not shown
light: DIVLTQSPDSLAVSLGERVTMNCKSSQSLLNSGMRKSFLAWYQQKPGQSPKLLIYWASTRESGVPDRFTGSGSGTDFTLTISSVQAEDVAVYYCKQSYHLFTFGSGTKLEIKRTVAAPDIQMTQSPSSLSASVGDRVTITCRASQDVSTAVAWYQQKPGKAPKLLIYSASFLYSGVPSRFSGSGSGTDFTLTISSLQPEDFATYYCQQSYTTPPTFGQGTKVEIKRTVAAPSVFIFPPSDEQLKSGTASVVCLLNNFYPREAKVQWKVDNALQSGNSQESVTEQDSKDSTYSLSSTLTLSKADYEKHKVYACEVTHQGLSSPVTKSFNRGEC
notes: HC linker short, LC linker short; also called DVD-Ig DVD573
B15: in the test with PlGF [2], the EC50 is 0.14 nM.
